# Measurements as given in US20220168440A1, “ANTIBODY-PYRROLOBENZODIAZEPINE DEPRIVATIVE CONJUGATE” (DAIICHI SANKYO COMPANY, LIMITED, priority 2019, published 2022).
# T1: human CLDN3 (human, UniProt O15551 1-220)
# T1 construct: whole, on cells
# T1 sequence (looked up): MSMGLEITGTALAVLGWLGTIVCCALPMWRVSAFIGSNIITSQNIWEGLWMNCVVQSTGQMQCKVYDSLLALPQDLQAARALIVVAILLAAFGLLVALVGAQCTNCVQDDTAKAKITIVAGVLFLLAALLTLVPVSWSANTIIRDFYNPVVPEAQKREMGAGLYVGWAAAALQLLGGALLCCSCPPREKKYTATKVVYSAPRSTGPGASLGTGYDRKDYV
# T2: human CLDN4 (human, UniProt O14493 1-209)
# T2 construct: whole, on cells
# T2 sequence (looked up): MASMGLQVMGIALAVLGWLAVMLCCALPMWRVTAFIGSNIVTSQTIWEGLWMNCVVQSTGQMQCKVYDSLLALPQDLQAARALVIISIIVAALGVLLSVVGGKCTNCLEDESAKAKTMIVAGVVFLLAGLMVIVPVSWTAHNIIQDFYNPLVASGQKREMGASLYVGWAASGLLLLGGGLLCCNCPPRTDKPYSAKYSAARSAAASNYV
# T3: human CLDN9 (human, UniProt O95484 1-217)
# T3 construct: NP_066192; It was expressed on 293T cells transiently transfected with human CLDN9/pCMV6-Entry (OriGene); also called claudin-9
# T3 sequence: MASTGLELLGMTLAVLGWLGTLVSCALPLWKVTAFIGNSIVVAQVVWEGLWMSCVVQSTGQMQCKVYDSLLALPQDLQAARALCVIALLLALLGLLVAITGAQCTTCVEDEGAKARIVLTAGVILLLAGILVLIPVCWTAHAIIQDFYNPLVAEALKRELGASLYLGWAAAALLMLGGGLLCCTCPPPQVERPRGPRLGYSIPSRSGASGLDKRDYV
# T4: human CLDN6 (human, UniProt P56747 1-220)
# T4 construct: Four-transmembrane protein, NP_067018; It was also expressed on CHO-K1 cells by cDNA transfection; In the immunoprecipitation it was the endogenous protein from NTERA-2 cell lysate; also called hCLDN6; claudin-6
# T4 sequence: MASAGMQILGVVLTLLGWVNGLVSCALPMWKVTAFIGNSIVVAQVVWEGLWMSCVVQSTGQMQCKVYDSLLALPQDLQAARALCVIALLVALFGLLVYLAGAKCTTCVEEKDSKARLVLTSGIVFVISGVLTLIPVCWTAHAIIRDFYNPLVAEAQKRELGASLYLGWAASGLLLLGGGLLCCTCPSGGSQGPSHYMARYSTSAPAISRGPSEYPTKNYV
# How the values were obtained:
# KPL-4 cells = experiment: Cell growth inhibition of drug 1 (4), CellTiter-Glo; format: cell-based; conditions: KPL4, 144 h; human breast cancer cell line; 6 days culture; read-out: anticellular effect IC50 on KPL-4 cells
# Procedure: KPL-4 cells (Dr. Junichi Kurebayashi, Kawasaki Medical School, British Journal of Cancer, (1999) 79(5/6). 707-717), a human breast cancer cell line, were prepared with RPMI1640 Medium (Thermo Fisher Scientific; hereinafter, referred to as RPMI medium) containing 10% fetal bovine serum (Hyclone) to reach 6.25×10^3 cells/mL, and 80 μL portions of them were added to a 96-well cell culture microplate. After addition of the cells, the cells were cultured at 37° C. and 5% CO2 overnight.
# On the next day, 20 μL portions of drug 1 diluted with RPMI medium to 100 nM, 20 nM, 4 nM, 0.8 nM, 0.16 nM, 0.032 nM, 6.4 pM, 1.3 pM, and 0.26 pM were added to the microplate. To each well without any antibody-drug conjugate, 20 μL of RPMI medium was added. KPL-4 was cultured at 37° C. and 5% CO2 for 6 days. After culturing, the microplate was taken out of the incubator, and left to stand at room temperature for 30 minutes. CellTiter-Glo Luminescent Cell Viability Assay (Promega Corporation) in an amount equivalent to that of the culture solution was added, and stirred using a plate mixer. The microplate was left to stand at room temperature for 10 minutes, and thereafter the amount of emission was measured by using a plate reader (PerkinElmer). Cell survival rates were calculated by using the same formula as in Example 37.
# human CLDN3 = molecular target: T1, human CLDN3; experiment: flow cytometry on transiently transfected 293T cells
# Procedure: (§1) Binding activity of the mouse anti-CLDN6 antibodies produced in Example 6 to human CLDN6 and its family molecules, CLDN3, CLDN4, and CLDN9, was evaluated by using a flow cytometry method. Human CLDN3/pCMV6-Entry, human CLDN4/pCMV6-Entry, human CLDN6/pCMV-Entry, human CLDN9/pCMV6-Entry, or pCMV6-Entry purchased from OriGene Technologies, Inc. was transiently transferred into 293T cells (Thermo Fisher Scientific, HCL4517) by using Lipofectamine 2000 (Thermo Fisher Scientific), and the cells were cultured under conditions of 37° C. and 5% CO₂ overnight, and then a cell suspension was prepared. […] The cells were washed twice with Dulbecco's phosphate buffered saline (Sigma-Aldrich Co. LLC) containing 5% fetal bovine serum (Hyclone) (hereinafter, referred to as 5% FBS-containing PBS), and FLUORESCEIN-CONJUGATED GOAT IGG FRACTION TO MOUSE IGG (WHOLE MOLECULE) (MP Biomedicals, Inc.) 500-fold diluted with 5% FBS-containing PBS was then added thereto, and the cells were suspended and left to stand at 4° C. for 1 hour. After washing twice with 5% FBS-containing PBS, detection was carried out by using a flow cytometer (FC500; Beckman Coulter, Inc.). Data analysis was carried out by using FlowJo (Tree Star, Inc.). […] In each graph in FIG. 40, the ordinate represents FITC fluorescence intensity indicating the amount of the binding antibody and the abscissa represents antibody concentrations.
# (§2) The binding activity of the humanized anti-CLDN6 antibody produced in Example 10 to human CLDN6 and its family molecules, CLDN3, CLDN4, and CLDN9, was evaluated by using a flow cytometry method.
# human CLDN4 = molecular target: T2, human CLDN4; experiment: as above
# Procedure: as §1, §2
# human CLDN9 = molecular target: T3, human CLDN9; experiment: as above
# Procedure: as §1, §2
# human CLDN6 = molecular target: T4, human CLDN6; experiment: FACS on CHO-K1 cells transfected with human claudin-6 cDNA
Molecule,IC50 (KPL-4 cells) [nM],binding result (human CLDN3),binding result (human CLDN4),binding result (human CLDN9),binding result (human CLDN6)
"COc1ccc(C2=CN3C(=O)c4cc(OC)c(OCCCCCOc5cc6c(cc5OC)C(=O)N5CC7(CC7)C[C@H]5C=N6)cc4NC[C@@H]3C2)cc1 [Drug 1, (11a′S)-7′-Methoxy-8′-[(5-{[(11aS)-7-methoxy-2-(4-methoxyphenyl)-5-oxo-5,10,11,11a-tetrahydro-1H-pyrrolo[2,1-c][1,4]benzodiazepin-8-yl]oxy}pentyl)oxy]-1′,11a′-dihydro-5′H-spiro[cyclopropane-1,2′-pyrrolo[2,1-c][1,4]benzodiazepine]-5′-one]",0.01 to 0.02,,,,
"mouse anti-CLDN6 antibody C7 (antibody, V domains shown, Mouse monoclonal antibody purified from hybridoma 218C7 culture supernatant; a mouse IgG1 antibody was used as the control; also called C7 antibody; 218C7 antibody) VH: EVQLQQSGPELVKPGASVKISCKTSGYTFTEYTMHWVQQSHGKSLEWIGGVNPNSGDTSYNQKFKGKATLTVDKSSSTAYMELRSLTSEDSAVYYCARPGGYDVGYYAMDYWGQGTSVTVSS VL: DIQMTQTASSLSASLGDRVTISCRASQDINNYLNWYQQKPDGTVKLLIYSTSRLHSGVPSRFSGSGSGTHYSLTITHLEQEDIATYFCQQGYPLPWTFGGGTKLEIK",,no binding (tested: 30 µg/mL (highest concentration tested)),no binding (tested: 30 µg/mL (highest concentration tested)),binds,binds
